Reference: the supplement of paper PMC10567573

B1: C9orf9 (parent)
chain: TKHKCRQLTKASLKPRGCSKPPWR

Variants of: B1
Assay: protein stability index of a GFP-peptide fusion (GPS, HEK-293T) (PSI 1-6); higher = more stable
Settings: c terminus: a fixed tail appended
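Also: lentivirally expressed fusions sorted by FACS into six bins by GFP to DsRed ratio, PSI derived from sequencing read proportions per bin multiplied by bin number.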

Protein stability index, by site and new letter:
S12: R 3.37, W 2.09, F 2.28, I 2.87, D 2.82, Q 3.25, H 2.35, A 2.98, P 3.28, M 1.54, G 3.76, L 2.19, Y 2.06, N 3.19, E 2.57, T 2.6, C 2.41, K 3.81
T9: P 3.18, I 2.22, G 2.56, S 2.27, Y 3.38, V 2.92, H 2.47, N 3.87, K 3.57, M 2.48, L 2.17, Q 3.14, A 2.2, W 2.25, F 4.48
K14: E 3, I 2.2, M 1.73, F 2.78, V 2.79, D 2.2, T 3.17, Q 2.68, W 2.56, A 2.24, Y 1.54, N 3.41, S 2.86, C 2.63, R 2.52, P 2.98, L 2.75
L8: W 2.43, S 3.12, E 3.62, N 3.04, A 3.21, F 3.24, P 4.04, M 2.62, T 3.22, D 3.07, C 2.89, R 3.54, I 2.37, G 2.58, H 2.98, K 3.02, Y 2.35
K10: H 2.11, Q 2.77, R 3.59, T 3.42, M 2.38, I 2.73, S 3.07, Y 2.53, F 2.58, D 1.94, W 2.46, N 2.8, L 2.21, P 2.71, E 1.74
A11: Q 2.16, N 2.95, K 2.85, P 3.89, Y 2.48, D 2.81, S 2.78, V 2.57, W 2.27, G 3.46, F 1.67, H 3.04, I 2.29, C 2.23, T 2.92, E 2.27, L 2.59, M 1.94
R16: H 2.6, G 2.42, I 2.56, L 2.56, K 2, P 3.31, M 2.45, C 2.75, S 2.89, D 3.28, V 3.76, N 3.08, E 2.33, T 2.67, A 2.72
P15: M 2.32, W 2.22, D 3.17, L 2.01, S 3, T 2.67, C 2.5, H 4.16, G 3.41, K 3.52, Y 1.68, E 2.59, N 2.86, F 2.77, R 3.93, I 2.66
Q7: G 2.75, Y 2.72, P 3.14, F 1.63, C 2.17, N 3.14, M 2.14, V 1.97, L 1.29, A 2.96, K 3.27, T 2.06, D 4.68, S 3.27, E 2.73, R 2.56, I 2.08, H 2.5
L13: D 3.64, V 2.33, E 2.91, W 3.03, G 4.47, Q 3.57, I 3.22, T 3.32, F 2.63, H 2.88, A 3.23, S 3.5, M 2.8, C 3.26, N 2.92, P 3.42, R 3.55, Y 2.43
